This note sets out measurements from US20100048462A1, “TRUNCATED PTH PEPTIDES WITH A CYCLIC CONFORMATION” (Zealand Pharma A/S, priority 2006, published 2010).

Bridge positions count the residues as written; N and C are the ends. Square brackets hold non-standard residues; d marks the D form. Peptide text beside a SMILES is read from it. hArg = N=C(N)NCCCC[C@H](N)C(=O)O; Met(O) = CS(=O)CC[C@H](N)C(=O)O; Ac5c = NC1(C(=O)O)CCCC1; Abu = CC[C@H](N)C(=O)O; Aib = CC(C)(N)C(=O)O

Experiment [1] has as its target T1, Saos-2 PTH1R (Homo sapiens, UniProt Q03431).
T1 construct: endogenous in cells; host or cells: Saos-2
T1 sequence (Q03431 27-593): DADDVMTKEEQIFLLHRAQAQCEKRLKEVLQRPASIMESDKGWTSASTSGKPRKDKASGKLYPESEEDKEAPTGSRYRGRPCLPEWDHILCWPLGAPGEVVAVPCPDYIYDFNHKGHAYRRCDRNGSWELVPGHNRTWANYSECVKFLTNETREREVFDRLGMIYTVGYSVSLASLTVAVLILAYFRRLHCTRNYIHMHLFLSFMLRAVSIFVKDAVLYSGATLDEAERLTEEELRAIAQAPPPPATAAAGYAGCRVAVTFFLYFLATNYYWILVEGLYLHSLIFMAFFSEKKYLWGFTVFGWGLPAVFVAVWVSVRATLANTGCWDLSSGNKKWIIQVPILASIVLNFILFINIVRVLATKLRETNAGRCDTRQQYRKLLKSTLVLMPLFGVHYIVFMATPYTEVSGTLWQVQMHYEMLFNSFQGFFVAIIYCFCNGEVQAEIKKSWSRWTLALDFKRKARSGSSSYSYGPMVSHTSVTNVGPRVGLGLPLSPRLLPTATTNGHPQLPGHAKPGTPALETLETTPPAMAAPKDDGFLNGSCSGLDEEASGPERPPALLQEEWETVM
Nature of the experiment: cAMP-efficacy assay in Saos-2 cells. As to conditions: for EC50: cAMP, 100 μM IBMX, 37° C. 15 min, suffix of label = salt tested; for Emax ± SEM: relative effect to the control (SEQ ID NO: 32). The class given is cell-based. Here is the method:
Peptides were dissolved in phosphate buffered saline and further diluted in Tyrode's buffer (TB, Sigma-Aldrich) containing 0.1% BSA and 100 μM isobutyl-methyl-xanthine (IBMX, Sigma-Aldrich). Saos-2 cells were seeded at 50,000 cells/well in 96-microtiter plates and grown for two days before the efficacy assays. On the day of analysis, the growth medium was carefully removed by suction. Cells were washed once with 200 μl TB/0.1% BSA. The buffer was replaced with 100 μl reaction mixture (±test peptide), and incubated at 37° C. for 15 min. The reaction was stopped by addition of 25 μl of ice-cold 0.5 M HCl. Cells were in the following incubated on ice for 60 min. 75 μl acetate-buffer, pH6.2, was added to each well of a 96-well cAMP FlashPlate (Perkin-Elmer). […] FlashPlates were incubated overnight at 4° C., emptied by suction and counted in a TopCounter (Packard).
Determinations were performed in single determinations or triplicates at all doses. […] Standards were included as single determinations, duplicates or triplicates in each experiment, preferentially on each plate.
Concentration-dependent cAMP responses were imported into GraphPad Prism vers. 4 (GraphPad Software), transformed and plotted. […] Thus, a four-parameter logistic equation was used for determination of the EC50 values. Curves were fitted with a function for sigmoidal dose response curve (variable slope) non-linear fit Y=Bottom+(Top-Bottom)/(1+10̂((LogEC50−X)*HillSlope)) where X is the logarithm of concentration and Y is the response. Y starts at Bottom and goes to Top with a sigmoid shape. pEC50, Hill-coefficient and the maximally inducible concentration of cAMP (Emax) were evaluated.
Overall statistical differences were analyzed with Statistica (Statsoft) using one-way ANOVA. Post-hoc comparisons were made by the use of Fisher's Least Significance Test. Results were considered significant, when p was lower than 0.05.

Experiment [2] deals with Saos-2 PTH1R (UniProt Q03431). Nature of the experiment: cell-based or functional assay.

For the molecule `CC[C@H](C)[C@H](NC(=O)[C@H](CCC(=O)O)NC(=O)C(C)(C)NC(=O)[C@@H](NC(=O)C1(N)CCCC1)C(C)C)C(=O)N[C@@H](CCC(=O)O)C(=O)N[C@@H](CC(C)C)C(=O)N[C@@H](CC(C)C)C(=O)N[C@@H](Cc1c[nH]cn1)C(=O)N[C@@H](CCC(N)=O)C(=O)N[C@@H](CCCCNC(=N)N)C(=O)N[C@@H](C)C(=O)N[C@H]1CCCCNC(=O)C[C@@H](C(N)=O)NC(=O)[C@H](CC(N)=O)NC(=O)[C@H](CC(C)C)NC(=O)[C@H](Cc2c[nH]c3ccccc23)NC1=O` [SEQ ID NO: 29, H-Ac5c-Val-Aib-Glu-Ile-Glu-Leu-Leu-His-Gln-Har-Ala-Lys( )-Trp-Leu-Asn-Asp( )-NH2] (H-[Ac5c]V[Aib]EIELLHQ[hArg]AKWLND-NH2; lactam 13-17), in experiment [1], the 50% effective concentration (EC50) was 112 nM and the “Emax ± SEM” value is 1.27 ± 0.20.
For the molecule “H-Ac5c-Val-Aib-Glu-Ile-Gln-Leu-Met-His-Gln-Har-Ala-Lys( )-Phe-Leu-Asn-Asp( )-NH2 (peptide)”, in experiment [2], the Emax, cAMP efficacy assay in Saos-2 cells (26T, trifluoroacetate salt) (relative to control (SEQ ID NO: 32)) was determined as 1.08 and the pEC50, cAMP efficacy assay in Saos-2 cells (26T, trifluoroacetate salt) is 7.9 -log(M).
Regarding `CC[C@H](C)[C@H](NC(=O)[C@H](CCC(=O)O)NC(=O)C(C)(C)NC(=O)[C@@H](NC(=O)C1(N)CCCC1)C(C)C)C(=O)N[C@@H](CCC(N)=O)C(=O)N[C@@H](CC(C)C)C(=O)N[C@@H](CCSC)C(=O)N[C@@H](Cc1c[nH]cn1)C(=O)N[C@@H](CCC(N)=O)C(=O)N[C@@H](CCCCNC(=N)N)C(=O)N[C@@H](C)C(=O)N[C@H]1CCCCNC(=O)C[C@@H](C(N)=O)NC(=O)[C@H](CC(N)=O)NC(=O)[C@H](CC(C)C)NC(=O)[C@H](Cc2c[nH]c3ccccc23)NC1=O` [2T, H-Ac5c-Val-Aib-Glu-Ile-Gln-Leu-Met-His-Gln-Har-Ala-Lys( )Trp-Leu-Asn-Asp( )-NH2] (H-[Ac5c]V[Aib]EIQLMHQ[hArg]AKWLND-NH2; lactam 13-17), in experiment [1], the EC50 was 6.61 nM and the “Emax ± SEM” value was 0.70 ± 0.09.
For `CC[C@H](N)C(=O)N[C@H](C(=O)NC(C)(C)C(=O)N[C@@H](CCC(=O)O)C(=O)N[C@H](C(=O)N[C@@H](CCC(N)=O)C(=O)N[C@@H](CC(C)C)C(=O)N[C@@H](CC(C)C)C(=O)N[C@@H](Cc1c[nH]cn1)C(=O)N[C@@H](CCC(N)=O)C(=O)N[C@@H](CCCCNC(=N)N)C(=O)N[C@@H](C)C(=O)N[C@H]1CCCCNC(=O)C[C@@H](C(N)=O)NC(=O)[C@H](CC(N)=O)NC(=O)[C@H](CC(C)C)NC(=O)[C@H](Cc2c[nH]c3ccccc23)NC1=O)[C@@H](C)CC)C(C)C` [SEQ ID NO: 11, H-Abu-Val-Aib-Glu-Ile-Gln-Leu-Leu-His-Gln-Har-Ala-Lys( )-Trp-Leu-Asn-Asp( )-NH2] (H-[Abu]V[Aib]EIQLLHQ[hArg]AKWLND-NH2; lactam 13-17), in experiment [1], the EC50 is 67.6 nM and the “Emax ± SEM” value is 1.04 ± 0.05.
Turning to “(H-Ac5c-Val-Aib-Glu-Ile-Gln-Leu-Met-His-Gln-Har-Ala-Lys( )-Trp-Leu-Asn-Asp( )-NH2)2 (peptide)”, in experiment [2], the Emax, cAMP efficacy assay in Saos-2 cells (39T, trifluoroacetate salt) (relative to control (SEQ ID NO: 32)) worked out at 0.95 and the pEC50, cAMP efficacy assay in Saos-2 cells (39T, trifluoroacetate salt) was 8.3 -log(M).
On to `CC[C@H](C)[C@H](NC(=O)[C@H](CCC(=O)O)NC(=O)C(C)(C)NC(=O)[C@@H](NC(=O)C1(N)CCCC1)C(C)C)C(=O)N[C@@H](CCC(N)=O)C(=O)N[C@@H](CC(C)C)C(=O)N[C@@H](CCSC)C(=O)N[C@@H](Cc1c[nH]cn1)C(=O)N[C@@H](CCC(N)=O)C(=O)N[C@@H](CCCCNC(=N)N)C(=O)N[C@@H](C)C(=O)N[C@H]1CCCCNC(=O)C[C@@H](C(N)=O)NC(=O)[C@H](CC(N)=O)NC(=O)[C@H](CC(C)C)NC(=O)[C@H](Cc2ccccc2)NC1=O` [SEQ ID NO: 26, H-Ac5c-Val-Aib-Glu-Ile-Gln-Leu-Met-His-Gln-Har-Ala-Lys( )-Phe-Leu-Asn-Asp( )-NH2] (H-[Ac5c]V[Aib]EIQLMHQ[hArg]AKFLND-NH2; lactam 13-17), for which, in experiment [1], the EC50 is 12.6 nM and the “Emax ± SEM” value came to 1.08 ± 0.09.
For “H-Ac6c-Val-Aib-Glu-Ile-Gln-Leu-Leu-His-Gln-Har-Ala-Lys( )-Trp-Leu-Asn-Asp( )-NH2 (peptide)”, in experiment [2], the Emax, cAMP efficacy assay in Saos-2 cells (10T, trifluoroacetate salt) (relative to control (SEQ ID NO: 32)) was found to be 1.08 and the pEC50, cAMP efficacy assay in Saos-2 cells (10T, trifluoroacetate salt) was 7.9 -log(M).

B1: H-Ac5c-Val-Aib-Glu-Ile-Gln-Leu-Leu-His-Gln-Har-Ala-Lys( )-Trp-Leu-Asn-Asp( )-OH (peptide)
chain: H-[Ac5c]V[Aib]EIQLLHQ[hArg]AKWLND-OH
modifications: lactam 13-17
SMILES: CC[C@H](C)[C@H](NC(=O)[C@H](CCC(=O)O)NC(=O)C(C)(C)NC(=O)[C@@H](NC(=O)C1(N)CCCC1)C(C)C)C(=O)N[C@@H](CCC(N)=O)C(=O)N[C@@H](CC(C)C)C(=O)N[C@@H](CC(C)C)C(=O)N[C@@H](Cc1c[nH]cn1)C(=O)N[C@@H](CCC(N)=O)C(=O)N[C@@H](CCCCNC(=N)N)C(=O)N[C@@H](C)C(=O)N[C@H]1CCCCNC(=O)C[C@@H](C(=O)O)NC(=O)[C@H](CC(N)=O)NC(=O)[C@H](CC(C)C)NC(=O)[C@H](Cc2c[nH]c3ccccc23)NC1=O
For the molecule B1, in experiment [2], the Emax, cAMP efficacy assay in Saos-2 cells (5T, trifluoroacetate salt) (relative to control (SEQ ID NO: 32)) turned out to be 1.16 and the pEC50, cAMP efficacy assay in Saos-2 cells (5T, trifluoroacetate salt) was 7.14 -log(M).
Consider H-[Ac5c]V[Aib]EIQL[Met(O)]HQ[hArg]AKWLND-NH2 (lactam 13-17) [H-Ac5c-Val-Aib-Glu-Ile-Gln-Leu-Met(O)-His-Gln-Har-Ala-Lys( )-Trp-Leu-Asn-Asp( )-NH2], for which, in experiment [2], the Emax, cAMP efficacy assay in Saos-2 cells (40T, trifluoroacetate salt) (relative to control (SEQ ID NO: 32)) is 1.1 and the pEC50, cAMP efficacy assay in Saos-2 cells (40T, trifluoroacetate salt) was 6.9 -log(M).
